The values that follow come from the supplement of paper PMC9732359.

± gives the uncertainty stated by the source.

A short description of this data set: protein stability index of a GFP-peptide fusion (yeast GPS) (PSI 1-4); higher = more stable; sorted into four equal gates, so the index is relative within each strain. The gist of the method:
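Tiled yeast protein peptides of 17 residues were each joined downstream of GFP, on plasmids that also express Cherry. The pooled library was maintained in yeast, and mid-log cultures in leucine-free medium were sorted into four equal gates on the GFP/Cherry ratio. Plasmids from every gate were amplified by PCR and sequenced on Illumina, with barcodes linking reads to strains. The protein stability index of a peptide is its gate-number-weighted read frequency summed over the gates.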

Take FTNRSTMMANFEEWIKM [BRN1]: the protein stability index worked out at 2.12 ± 0.18 (doa10∆), 2.31 ± 0.19 (pdr5∆), 2.32 ± 0.1 (san1∆) and 2.65 ± 0.054 (ubr1∆).
For FTNVLTKYSDVLGFLQL [YJL039C/NUP192], the protein stability index runs as follows: (doa10∆) 2.59 ± 0.072; (pdr5∆) 2.07 ± 0.071; (san1∆) 2.85 ± 0.053; (ubr1∆) 2.01 ± 0.052.
For FTNVPLNLEQVTLNKYC [YJL039C/NUP192], in that order: 1.99 ± 0.047, 1.99 ± 0.045, 1.92 ± 0.077 and 2.14 ± 0.045.
In turn, FTPQEIEYCSAQPSVQS [FAS2] gave a protein stability index (doa10∆) of 2.88 ± 0.27.
For FTRIFLPIYDSLMSSQN [SIR3], the protein stability index amounted to 2.24 ± 0.045 (doa10∆), 2.05 ± 0.038 (pdr5∆), 1.99 ± 0.074 (san1∆) and 2.21 ± 0.037 (ubr1∆).
The like results for FVDDMLRDYRFEDATRE [SNF5] were, in that order, 2.92 ± 0.096, 3 ± 0.095, 3.19 ± 0.082 and 3.35 ± 0.046.
The like results for FVDLNEKELQNEIKQLG [SRB4] were, in that order, 2.31 ± 0.072, 2.41 ± 0.17, 2.13 ± 0.2 and 2.78 ± 0.14.
For FVEVERARVTKDLVEIK [RPN5], in that order: 3.37 ± 0.11, 3.44 ± 0.093, 3.33 ± 0.066 and 3.56 ± 0.058.
Turning to FVIGVIIGTFSDSYKVS [RRP40], the protein stability index reads like this: (doa10∆) 1.43 ± 0.057; (pdr5∆) 1.41 ± 0.068; (san1∆) 2.04 ± 0.12; (ubr1∆) 2.23 ± 0.078.
The like results for FVIHIQEKNFQTGIFVY [RPB5] were, in that order, 1.98 ± 0.062, 1.58 ± 0.05, 1.54 ± 0.16 and 1.88 ± 0.081.
With FVMKTRRRKGISTGGFM [SNU114], the protein stability index came out at 3.44 ± 0.15 (doa10∆) and 3.18 ± 0.11 (ubr1∆).
Regarding FVRQAAMIALSMILIQQ [RPN2], the protein stability index stood at 1.35 ± 0.083 (doa10∆), 1.75 ± 0.17 (pdr5∆), 1.48 ± 0.19 (san1∆) and 1.82 ± 0.14 (ubr1∆).
For FYAAVQKNYADPEKDSI [SIN4], in that order: 2.11 ± 0.083, 2.58 ± 0.074, 2.01 ± 0.093 and 1.59 ± 0.046.
In turn, GAEVLIKGSKLSLGEAF [COR1] displayed a protein stability index (san1∆) of 2.32 ± 0.15 and a protein stability index (ubr1∆) of 2.37 ± 0.1.
For the sequence GAHKFLDTYLPEDLNSL [SIR2], the protein stability index (doa10∆) is 1.85 ± 0.071, the protein stability index (pdr5∆) worked out at 1.88 ± 0.076, the protein stability index (san1∆) is 1.56 ± 0.13 and the protein stability index (ubr1∆) was 1.81 ± 0.064.
For GAINVANCQRQLTEFWT [NNF1], the protein stability index was found to be 3.2 ± 0.16 (doa10∆), 2.76 ± 0.13 (pdr5∆) and 2.71 ± 0.21 (san1∆).
GALEEITKDHKVLARQQ [FAS2]: the protein stability index was 2.31 ± 0.25 (doa10∆), 3.01 ± 0.12 (san1∆) and 2.73 ± 0.17 (ubr1∆).
In the case of GALIHKAGLMTGGISGD [SMC1], the protein stability index (doa10∆) is 2.63 ± 0.16, the protein stability index (pdr5∆) is 2.73 ± 0.11, the protein stability index (san1∆) came out at 2.72 ± 0.06 and the protein stability index (ubr1∆) worked out at 2.75 ± 0.087.
For GARFDDGAGGDNEVQRT [RPT1], in that order: 3.58 ± 0.2, 3.4 ± 0.26, 3.47 ± 0.24 and 3.52 ± 0.083.
As for GARPGRVARRNAARKAE [RPS9A], the protein stability index turned out to be 3.3 ± 0.13 (doa10∆), 3.45 ± 0.17 (pdr5∆) and 3 ± 0.098 (ubr1∆).
For GATYRGKLVESEDSMNV [SMD3], the protein stability index by setting is: (doa10∆) 3.17 ± 0.084; (pdr5∆) 2.73 ± 0.053; (san1∆) 3.01 ± 0.06; (ubr1∆) 3.33 ± 0.055.
GCLHKGKLISNLSSTPM [YML031W/NDC1]: the protein stability index was found to be 1.81 ± 0.16 (pdr5∆) and 2.05 ± 0.19 (ubr1∆).
With GCNNLIKNISNRVGLTL [ARP9], the protein stability index reads like this: (doa10∆) 3.28 ± 0.098; (pdr5∆) 2.63 ± 0.066; (san1∆) 3.33 ± 0.069; (ubr1∆) 3.14 ± 0.057.
As to GCVSYSPAALKQLASLK [YMR153W/NUP53], the protein stability index was 1.7 ± 0.066 (doa10∆), 2.22 ± 0.07 (pdr5∆), 2.08 ± 0.12 (san1∆) and 2.62 ± 0.078 (ubr1∆).
The like results for GDIVRMLETAGFSMNNP [SMC3] were, in that order, 3.08 ± 0.095, 3.26 ± 0.1, 3.04 ± 0.089 and 3.16 ± 0.054.
Turning to GDLKLQVLLDEEYKQLV [RPO21], the protein stability index runs as follows: (doa10∆) 2.48 ± 0.12; (pdr5∆) 2.94 ± 0.082; (san1∆) 2.73 ± 0.11; (ubr1∆) 3.2 ± 0.062.
Turning to GDLVYARVCTAEKELEA [RRP40], the protein stability index runs as follows: (doa10∆) 1.3 ± 0.09; (pdr5∆) 1.51 ± 0.19; (san1∆) 1.46 ± 0.19; (ubr1∆) 1.2 ± 0.23.
